Square brackets hold non-standard residues; d marks the D form. Ends that are not written are not given here.
B1: SADC with haptoglobin scaffold carrying the tagged V5 peptide (peptide, part only; not given: haptoglobin scaffold, part only)
peptide: IPNPLLGLDGGSGDYKDDDDKGK[BiotinAca]GC
modifications: also: bound to haptoglobin scaffold
B2: SADC with albumin scaffold carrying the tagged V5 peptide (peptide, part only; not given: albumin scaffold, not shown: large carriers)
peptide: IPNPLLGLDGGSGDYKDDDDKGK[BiotinAca]GC
modifications: also: bound to albumin scaffold
B3: SADC with transferrin scaffold carrying the tagged V5 peptide (peptide, part only; not given: transferrin scaffold, not shown: large carriers)
peptide: IPNPLLGLDGGSGDYKDDDDKGK[BiotinAca]GC
modifications: also: bound to transferrin scaffold

What follows are binders tested against mAB anti V5 (Thermo Scientific) (mouse) (assay: 1 ug/ml mouse anti V5 with increasing SADC, capture on streptavidin plate, bound IgG by ELISA).

| EC50 [µg/mL] | Binder |
| --- | --- |
| 0.0555 | B1 |
| 0.0279 | B2 |
| 0.007 | B3 |

Source: patent US20230355784A1
